Assay results taken from a protein production outcome set (Wang et al. 2014).

Assay: label from the status in PepcDB records
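Also: failed if final PepcDB status was selected cloned or expressed and not failed if soluble or beyond.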

Row | Sequence | protein production
1 | MKNRTKSRWKKIVLGIGLFLAVLVIGLTIFIKNSTYQATDSALKISQSATQEKNYDYYTNGQKNDTALIFYPGALVAPASYSEWAQEVATKGYDVYVVHFPLNLAVLAPNAAEQIIKDHPQQNFVLAGHSLGGVMASRFVAENEQRIKGMIYLASYPDEKGALNKKNLPVLSITATNDGVLNWTSYQKAKQFLPKDTQYVSIEGGNHAGFGNYGVQKGDSKATISNEQQQTEISQLIVAWLQSRPNK | failed
2 | MKNSFLCVGSFLLAASFFTSCTEDKDWSGGLKNSDLVFQTYLPTEGAKGTELSIRGNNFGEDISQVQVWVNEKEAEVISVTSTRIMARVAEASGSGVVKVRVGEVVYSYPDLFSYGYIRNVYTVAGNGQGTTVDGAYLQASVQWPIVMVYDKWDDAILFLQDEGEHRIRRMKDGKIETLCSTKSLVNNARSICFSLDGDTLFIGNDNANNYVANPVAVGMVTRKGGFKDLKSYIPSEKLAQPHINGIAVNPVDGSLFTYHWGRHVFRYNKATETCEYVITRDQFNELVVGLFPDADGNMQNIGGDGGYGGLAFSPDGKTLYWNGRDPYQGILKADYDLVTKKCTNLTRFAGNGVWGIIDGQGVSSRMDQPNQIAVDAEGNLLVTTVYGRTVRKITPEGYVSTYAGIGYQTGYVDGLAAEAKFNKPYGIAIDAQGNVYVGDCENWRIRVIKEE | failed
3 | MKNYMKLIFGLGLIALVGYWPAAKTPKRVNSLFLQNVEALAGSEHVTNLGCLGDGSVDCPINHIKVEYVVQGFSLGE | failed
4 | MKPADLTNADRIALELGHAGRNAIPYLDDDRNADRPFTLNTYRPYGYTPDRPVVVVQHGVLRNGADYRDFWIPAADRHKLLIVAPTFSDEIWPGVESYNNGRAFTAAGNPRHVDGWTYALVARVLANIRAAEIADCEQVYLFGHSAGGQFVHRLMSSQPHAPFHAVTAANPGWYTLPTFEHRFPEGLDGVGLTEDHLARLLAYPMTILAGDQDIATDDPNLPSEPAALRQGPHRYARARHYYEAGQRAAAQRGLPFGWQLQVVPGIGHDGQAMSQVCASLWFDGRMPDAAELARLAGSQSA | not failed
5 | MKPAKVSLLHRLLQCLKQCVDCNTVNRFTAINIFVNILLISAVISFPYSAAAHGATQSGDQYSSFEELERNEDPASYRITEKNARVPMLIMAIHGGGIEPGTSEIANEVSKNYSLYLFEGLKSSGNTDLHITSTRFDEPAALAITASHQYVMSLHGYYSEDRDIKVGGTDRAKIRILVDELNRSGFAAEMLGTDDKYAGTHPNNIANKSLSGLSIQLEMSTGFRKSLFDRFTLKDRAATQNETFYRFTKLLTDFIHENYEEDGGDFPSAKIKHPLQV | failed
6 | MKPALHTVTSAPALPAYVATGNECALFEHAWRHQLPVLLKGPTGCGKTRFVAHMAARLGLPLHTVACHDDLTAADLTGRYLLKGGDTVWTDGPLTRAVREGGICYLDEVVEARKDVTVVLHPLTDDRRILPLERTGEELAAPKSFMLVVSYNPGYQTLLKALKPSTRQRFVAIEFGFLAPEQEIAVVSAESGLPPDRVRPLVALAGRLRALRGHDLEEGVSTRLVVYCATLIAAGTPIADAVLAGMIEPLTDDSDVKAALLDVARAVIG | failed
7 | MKPARAQGSIMLLVDVYLDKSPIQGIGVFAKHHIPMGTLIWKLDPRFDRIIDVETYEGESGPVKNYLDRYSYPDRRDPAYIVFEADDARYMNHDDEPNCDVSSPEETYALRDIAPGEELTCNYNHFFEAGFDFLGDRHL | failed
8 | MKPENKIPVLTRLSDEMTAVVNFQQPGLPPWPADGDIETQRQYYLLERRFWNADAPSMTTRTCAVPTPYGDVTTRLYSPQPTSQATLYYLHGGGFILGNLDTHDRIMRLLARYTGCTVIGIDYSLSPQARYPQAIEETVAVCSYFSQHADEYSLNVEKIGFAGDSAGAMLALASALWLRDKHIRCGNVIAILLWYGLYGLQDSVSRRLFGGAWDGLTREDLDMYEKAYLRNDEDRESPWYCLFNNDLTRDVPPCFIASAEFDPLIDDSRLLHQTLQAHQQPCEYKMYPGTLHAFLHYSRMMTIADDALQDGARFFMARMKTPR | not failed
9 | MKPICIIPARSGSKGLPDKNMLFLSGKPMIFHTIDAAIESGMFDKKDIFVSTDSELYREICLERGISVVMRKPELSTDQATSYDMLKDFLSDYEDNQEFVLLQVTSPLRKSWHIKEAMEYYSSHDVDNVVSFSEVEKHPSLFTTLSDEGYAIDMVGADKGYRRQDLQPLYYPNGAIFISNKETYLREKSFFTSRTYAYQMAKEFSLDVDTRDDFIHVIGHLFFDYAIREKENKVFYKEGYSRLFNREASKIILGDSKTISTSLESYHNYSQGGVTLATMLENLPNFLTANVTEAFVSIGVNDLITGYSVEEIFSNFQKLYSLLAENKIKMRLTTIAYTLFRETVNNADIEKINQWLTEFCYQNQIPLLDINRFLSKDGNLNYHLTSDGLHFTQEANDLLQSQYQLFVDEVKTLLEHHHHHH | not failed
